Results published in the RNAGym collection of RNA variant scans (doi:10.7554/elife.80360).

B1: HDV Ribozyme (parent)
chain: GGCCGGCAUGGUCCCAGCCUCCUCGCUGGCGCCGGCUGGGCAACAUUCCGAGGGGACCGUCCCCUCGGUAAUGGCGAAUGGGACCCA

Variants of: B1
Assay: self-cleavage, relative activity (ratio to wild type); higher = more cleavage; co-transcriptional
C26G A45U showed a self-cleavage of 0.895.
Work on C26G A45G yielded a self-cleavage of 1.04.
For C26G A45C, the self-cleavage was 0.364.
Work on G25C A78G yielded a self-cleavage of 0.
Work on C26A C32G yielded a self-cleavage of 0.
In the case of C26A G53U, the self-cleavage is reported as 0.932.
Variant C24G C41U has a self-cleavage of 0.102.
C24G C41G gave a self-cleavage of 0.
For G25C G52A, the self-cleavage was 0.17.
With C24U A83G the self-cleavage was 0.394.
C24U A83U gave a self-cleavage of 0.198.
Work on C24U A83C yielded a self-cleavage of 0.219.
In the case of G25U G80C, the self-cleavage is reported as 0.0733.
Variant C24U A45G has a self-cleavage of 0.373.
For C24G A78G, the self-cleavage was 0.173.
In the case of C24G A83G, the self-cleavage is reported as 0.153.
For C24U G52C, the self-cleavage was 0.884.
With C24U G52U the self-cleavage was 0.694.
C26G C85U showed a self-cleavage of 0.956.
With G25C U37C the self-cleavage was 0.0554.
For G25A A77C, the self-cleavage was 0.0978.
For G25C G40C, the self-cleavage was 0.156.
With G25C G40U the self-cleavage was 0.0563.
Work on G25U G59C yielded a self-cleavage of 0.0997.
With G25U G59U the self-cleavage was 0.0511.
G25U G59A gave a self-cleavage of 0.104.
With C26G C62A the self-cleavage was 0.985.
C26G C62U showed a self-cleavage of 1.09.
In the case of C24G G50A, the self-cleavage is reported as 0.104.
C24U A71C gave a self-cleavage of 0.453.
In the case of G25U G54U, the self-cleavage is reported as 0.228.
Work on C26G C44U yielded a self-cleavage of 1.04.
Work on C26A A78C yielded a self-cleavage of 0.284.
Work on C24U G25A yielded a self-cleavage of 0.181.
C24U G25C gave a self-cleavage of 0.125.
For G25A C62G, the self-cleavage was 0.151.
G25A C62U gave a self-cleavage of 0.182.
Work on C24U A78U yielded a self-cleavage of 0.172.
G25U U72C gave a self-cleavage of 0.111.
G25U U72G gave a self-cleavage of 0.181.
Variant G25C U27C has a self-cleavage of 0.128.
For G25C U27G, the self-cleavage was 0.
In the case of C26A U65C, the self-cleavage is reported as 1.21.
With C24A G82A the self-cleavage was 0.223.
With G25C G29U the self-cleavage was 0.0773.
Variant C24U A43G has a self-cleavage of 0.
For C24U A43U, the self-cleavage was 0.182.
With C24U C66A the self-cleavage was 0.525.
Work on G25C G35U yielded a self-cleavage of 0.0692.
For G25C A83U, the self-cleavage was 0.0923.
With C24U U72G the self-cleavage was 0.323.
G25A G81A showed a self-cleavage of 0.125.
Variant C26A G55C has a self-cleavage of 0.862.
Variant C26A G55U has a self-cleavage of 1.17.
For G25U U37A, the self-cleavage was 0.0831.
G25U G67C gave a self-cleavage of 0.277.
C24U C33G showed a self-cleavage of 0.166.
In the case of C24U C33A, the self-cleavage is reported as 0.0845.
For G25U G35A, the self-cleavage was 0.0415.
C24G C84G showed a self-cleavage of 0.0811.
With G25C C62U the self-cleavage was 0.145.
Variant G25C C62G has a self-cleavage of 0.0615.
For G25U A70C, the self-cleavage was 0.237.
In the case of G25U G53C, the self-cleavage is reported as 0.155.
G25U G73U gave a self-cleavage of 0.117.
Variant G25U G73A has a self-cleavage of 0.0923.
G25U G73C gave a self-cleavage of 0.0415.
With G25A C44U the self-cleavage was 0.107.
Variant G25A C44A has a self-cleavage of 0.
C24U A87G gave a self-cleavage of 0.55.
For G25U U69C, the self-cleavage was 0.229.
In the case of G25U U69A, the self-cleavage is reported as 0.196.
Work on C26A G82A yielded a self-cleavage of 0.721.
C26G A43G gave a self-cleavage of 0.437.
For C24U C32G, the self-cleavage was 0.
G25A A51G showed a self-cleavage of 0.269.
For C24U G29A, the self-cleavage was 0.0415.
For C24G U65C, the self-cleavage was 0.224.
In the case of C26G A42G, the self-cleavage is reported as 0.639.
For C26G A42C, the self-cleavage was 0.158.
Work on G25C C44G yielded a self-cleavage of 0.101.
With G25C C44A the self-cleavage was 0.185.
With C26G G28A the self-cleavage was 0.0449.
C26G G29C gave a self-cleavage of 0.0504.
Variant G25C G31A has a self-cleavage of 0.135.
C26A C75U showed a self-cleavage of 0.203.
C26A C62U gave a self-cleavage of 1.12.
For C24G C36G, the self-cleavage was 0.0923.
For C24G C36A, the self-cleavage was 0.
Variant G25U A71G has a self-cleavage of 0.101.
Work on C24G G52A yielded a self-cleavage of 0.123.
C26A G67U showed a self-cleavage of 1.04.
Variant C26A G67C has a self-cleavage of 0.985.
In the case of G25C U47C, the self-cleavage is reported as 0.
In the case of C24G A56C, the self-cleavage is reported as 0.0723.
C24G A56G showed a self-cleavage of 0.0875.
C24G C66A showed a self-cleavage of 0.0723.
For G25A G40U, the self-cleavage was 0.161.
G25A G53C gave a self-cleavage of 0.248.
In the case of G25A G53A, the self-cleavage is reported as 0.245.
C26A G28A gave a self-cleavage of 0.166.
For C26A G40U, the self-cleavage was 0.946.
Variant G25A A45C has a self-cleavage of 0.227.
G25A A45U gave a self-cleavage of 0.0489.
Work on C26G A87G yielded a self-cleavage of 1.07.
In the case of C26G A87C, the self-cleavage is reported as 1.02.
C26A G50A gave a self-cleavage of 0.881.
Variant C26A U37G has a self-cleavage of 0.19.
Work on C26A U37A yielded a self-cleavage of 0.166.
In the case of C24G G67U, the self-cleavage is reported as 0.135.
G25C A51C gave a self-cleavage of 0.128.
Work on C24U C44G yielded a self-cleavage of 0.119.
Work on G25C G68U yielded a self-cleavage of 0.161.
Work on C24U G31U yielded a self-cleavage of 0.0228.
In the case of C24U G55C, the self-cleavage is reported as 0.729.
Variant G25A C32U has a self-cleavage of 0.169.
C26A G54U gave a self-cleavage of 1.03.
G25A G28U showed a self-cleavage of 0.0185.
In the case of G25A G28A, the self-cleavage is reported as 0.0482.
Variant G25A G28C has a self-cleavage of 0.231.
Work on C26A C58A yielded a self-cleavage of 1.24.
C26A C58G showed a self-cleavage of 1.09.
With C26A A71C the self-cleavage was 1.07.
Variant C24U C48A has a self-cleavage of 0.692.
In the case of C24U C48U, the self-cleavage is reported as 0.604.
For C24U C63A, the self-cleavage was 0.753.
With C24G G35U the self-cleavage was 0.
C26A U47G showed a self-cleavage of 0.923.
Work on C26A U47A yielded a self-cleavage of 0.731.
Work on G25U C63A yielded a self-cleavage of 0.0791.
G25U C63U gave a self-cleavage of 0.163.
G25U C63G showed a self-cleavage of 0.203.
In the case of C24U C61G, the self-cleavage is reported as 0.745.
With C26A U72C the self-cleavage was 0.867.
With C26A C49U the self-cleavage was 0.849.
In the case of G25A A42U, the self-cleavage is reported as 0.
For C26G C33A, the self-cleavage was 0.298.
Variant C24G C49U has a self-cleavage of 0.115.
In the case of G25U G40C, the self-cleavage is reported as 0.0297.
Work on G25U G40U yielded a self-cleavage of 0.193.
For C26G A83U, the self-cleavage was 0.917.
For C26G A83G, the self-cleavage was 0.851.
C24G A51C gave a self-cleavage of 0.
G25C C64G showed a self-cleavage of 0.0573.
Variant C26A G68U has a self-cleavage of 0.929.
In the case of C26A G68C, the self-cleavage is reported as 0.87.
In the case of G25U C57G, the self-cleavage is reported as 0.208.
Work on G25U C57A yielded a self-cleavage of 0.192.
Variant G25C G28C has a self-cleavage of 0.
Work on G25C G28U yielded a self-cleavage of 0.119.
G25C C57G showed a self-cleavage of 0.119.
Variant C26A A87U has a self-cleavage of 1.21.
G25U U65G gave a self-cleavage of 0.269.
Work on C26A C61A yielded a self-cleavage of 0.865.
C26A C61G showed a self-cleavage of 1.04.
Work on C26A C61U yielded a self-cleavage of 0.974.
Work on G25U G76C yielded a self-cleavage of 0.224.
G25U G76U gave a self-cleavage of 0.389.
With G25U G76A the self-cleavage was 0.
With G25C A77G the self-cleavage was 0.111.
C24G U79C gave a self-cleavage of 0.165.
With C24G U79G the self-cleavage was 0.
For C26G A56G, the self-cleavage was 0.795.
Work on C26G C30G yielded a self-cleavage of 0.
Work on G25C C26G yielded a self-cleavage of 0.731.
Work on G25C C26A yielded a self-cleavage of 0.196.
G25U U60G showed a self-cleavage of 0.229.
